In the supplement of paper PMC10567573:

B1: FOXJ1 (parent)
chain: SAIYKWITDNFCYFRHADPTWQNS
B2: SMOC2 (parent)
chain: QKPLCASDGRTFLSRCEFQRAKCK

Variants of: B1
Assay: protein stability index of a GFP-peptide fusion (GPS, HEK-293T) (PSI 1-6); higher = more stable
Conditions: c terminus: a fixed tail appended
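Also: lentivirally expressed fusions sorted by FACS into six bins by GFP to DsRed ratio, PSI derived from sequencing read proportions per bin multiplied by bin number.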

Protein stability index, by site and new letter:
N23: M 2.75, F 3.19, P 3.02, T 3.31, R 3.24, Q 3.42, Y 3.52, L 2.46, K 2.13, G 4.27
N10: E 2.62, F 1.81, V 1.74, K 2.34, Q 2.11, H 2.3, I 2.79
W21: C 2.94, A 3.28, T 4.47
T8: H 3.34, D 3.49, G 2.05, R 2.51, M 3.27
I7: M 3.88, K 1.74, N 1.93, A 2.02
H16: K 1.7, A 2.55, T 2.32, R 5.03, Y 2.27, L 4.65
D18: C 2.02, W 2.55, I 2.82, T 2.81, A 3.1, R 2.77
F14: S 2.13, D 2.64, R 1.75, A 2.32, I 4.22, G 2.33, K 2.58
S1: L 2.55, K 3.58, W 3.8, F 3.6, M 3.02, P 2.9
D9: I 4, S 3.04, G 3.51, T 3.43, F 3.55, Y 2.56, R 3.41
A2: I 3.56
W6: D 2.12, A 1.66, E 2.27, F 2.43, C 2.1, Y 3.11, M 3.3, N 2.71, H 2.2
T20: F 1.78, A 2.54, P 3.38, K 2.23, L 2.08, R 3.92
Y13: C 2.83, W 3.59, R 1.8, G 3.62, Q 1.57
K5: N 3.19, A 2.97, L 2.73, F 2.91, Q 2.99, S 3.33, I 3.27
C12: Y 3.81, N 1.6, I 2.77, S 2.78, T 3.14, L 3.4
I3: W 2.41, R 1.78, A 2.42, E 1.67, Y 3.11, M 3.21, N 1.6
P19: F 4.12, L 1.54, C 2.7, K 3.4, E 3.59, Q 3.21
R15: F 2.57, N 3.46, M 2.66, D 2.25, W 2.97
S24: K 2.17, E 2.97
Y4: I 2.52, L 2.95, S 2.68
Q22: P 3.76, C 3.38
F11: H 2.71, M 3.18, G 1.96, L 3.24, P 1.79, T 2.83
A17: G 1.74, N 3.14, P 3.54, Q 2.7, I 2.91

Variants of: B2
Assay: as above
Conditions: c terminus: a fixed tail appended

Protein stability index: each site, then its substitutions
F18: G 4.44, S 3.82, K 4.62, W 1.6, N 4.19, P 3.49, Y 2.21, E 4.73, V 4.01, D 4.12, A 3.93, C 3.56, H 4.32, M 3.67, R 4.37, I 4.24
K22: W 2.86, R 2.95, M 2.36, C 2.72, P 2.88, Y 2.46, F 2.65, G 3.29, N 3.07, T 2.71, I 2.27, V 2.86, A 3.02, L 2.11, Q 3, H 2.31, E 2.76, D 2.9, S 3.06
L13: Y 2.52
C23: S 3.69, T 2.84, D 3.92, G 3.62, A 2.9, R 4.18, Y 1.85, W 2.34, L 3.03, Q 3.91, N 4, E 3.32, K 4.07, I 3.41, F 1.88, M 3.15, H 3.92, P 4.01
E17: Y 3.05, P 3.07, H 2.84, I 3.15, D 2.11, T 3.3, V 2.82, M 2.6, Q 4.38, C 2.74, L 2.29, G 2.26, S 2.68, K 3.19, W 1.54, A 3.31, N 3.29, R 3.5, F 2.32
R15: V 3.71, K 4.2, F 3.18, T 4.28, M 2.92, I 3.77, S 3.41, N 3.09, C 3.06, H 3.79, W 3.32, E 4.14, P 4.64, L 3.65, G 3.93, A 3.65, D 4.47, Q 3.45, Y 3.09
K24: I 2.23, E 3.19, W 2.36, M 2.62, D 3.35, L 2.5, R 1.74, C 1.98, P 2.83, N 2.48, V 2.62, A 3, Y 2.49, T 3.18, Q 2.64, F 1.92, G 2.95, H 2.76, S 2.88
Q19: S 4.18, M 3.09, K 3.67, Y 3.13, P 3.28, D 3.83, W 1.55, V 2.71, F 2.53, T 3.36, I 3, E 3.48, H 3.58, L 2, A 2.98, N 3.34, C 3.48, G 3.15
C16: A 3.39, F 3.86, Y 3.06, I 1.79, R 4.44, P 3.57, M 3.43, D 4.62, K 3.9, W 2.89, T 3.96, S 3.83, G 4.3, N 4.28, L 2.55, E 4.62, H 4.04, V 2.61
R20: E 3.45, D 4.16, I 3.39, T 3.83, A 3.14, W 2.4, H 2.77, F 2.29, Y 2.62, V 2.9, S 3.19, C 3.45, P 3.61, N 3.1, G 3.58, Q 3.52, M 3.57, L 3.01, K 3.47
S14: D 3.21, W 2.21, I 2.48, L 3.76, V 3.22, Y 2.71, T 3.4, F 2.64, A 3.42, H 3.73, E 3.08, N 3.47, C 2.82, P 4.08, Q 3.25, K 2.93, M 3.66, G 3.44
A21: K 3.9, F 2.44, M 2.88, H 2.7, L 2.48, D 3.17, Q 3.24, S 3.14, E 3.1, W 1.85, Y 2.58, V 2.96, C 3.48, I 3.14, G 3.68, P 3.98, T 3.4, N 2.68, R 3.18
